Measurements: the Immune Epitope Database (IEDB)

Molecular target: HLA-B*07:02
Experiment: IEDB peptide-MHC binding, purified MHC/competitive/fluorescence; ≥ and ≤ were set here for values at or beyond the usual limits of such assays
Settings: source organism: Homo sapiens

Sequence	IC50 [nM]
RPYSNVSNL	228
STTAICATGL	≥ 248000
LPTSHPKIV	3560
NPNQNKNVAL	1580
GPRTAALGLL	258

Now from value to sequence:

IC50 [nM]	Sequence
210	AARPATSTL
926	SPNQARAQAAL
466	TPQSNRPVM
176	APKRPPSAF
≥ 219000	IATVDSYVI
215	APAYSRAL
